Laboratory results published in patent US11013692B2, “Method of drug formulation based on increasing the affinity of crystalline microparticle surfaces for active agents” (MannKind Corporation, priority 2005, dated 2021).
Where no end group is shown, it is not given here.

Legend:
[1] = Saturation curves for adsorption of active agent onto FDKP microparticles at pH 5.0; assay type: physicochemical; conditions: pH 5.0, constant 5 mg/mL FDKP microparticles (FIGS. 7A-7D)
Method: When the hydration water is displaced by adsorption of the active agent, its structure relaxes and produces a net decrease in the ultrasonic velocity through the sample. […] These studies were conducted at pH 5.0 where optimal adsorption of the active agent to microparticles is observed.

[2] = at the concentrations used; cited from earlier work
[3] = Resuspension of dried active agent-coated FDKP microparticles in acid solution or water (filtration, HPLC); assay type: physicochemical; conditions: for Resuspended in Acidic solution, integrated HPLC peak area / Resuspended in water, integrated HPLC peak area: filtrate; for Resuspended in Acidic solution, integrated HPLC peak area / Redissolved after filtering away acidic solution, integrated HPLC peak area: final pH about 2.0, 215 nm; for Resuspended in water, integrated HPLC peak area / Redissolved after filtering away water, integrated HPLC peak area: final pH about 4.5, 215 nm; for Redissolved after filtering away acidic solution, integrated HPLC peak area / Redissolved after filtering away water, integrated HPLC peak area: retained particles dissolved; for Active Agent Standard solution, integrated HPLC peak area: 215 nm
Method: The solvent was filtered from these suspensions and the retained particles were dissolved and collected. The amount of active agent in all of these samples was quantitated by HPLC.
For each of the lots, the active agent was released from the particles in the acidic solution. Therefore, by protonating the surfaces of the microcrystals, the active agent desorbs from the crystal surfaces.

[4] = Adsorption onto FDKP microparticles at pH 5.0 with increasing salt (sodium chloride); assay type: physicochemical; conditions: pH 5.0, 5 mg/mL FDKP microparticles, sodium chloride (FIGS. 8A-8D)
Method: Each sample contained a different quantity of salt (sodium chloride), as indicated under each bar in FIGS. 8A-8D (units are mM). […] After a brief incubation, unbound active agent was removed by filtration and the particles with adsorbed active agent were redissolved. The amount of active agent and particle recovered was quantitated by HPLC, and expressed as a mass ratio (% loading).
This can be interpreted as evidence that the salt competed with the active agent for interaction with the particle surface. As the salt concentration was increased, it competed strongly and effectively for surface binding sites, and essentially displaced the active agent from the particle surfaces. It is also speculated, that decrease binding of the active agent to microparticle may be attributable to Debye shielding.

[5] = Insulin binding to FDKP particles at different pH (unbound insulin in supernatant by HPLC); assay type: physicochemical
[6] = pH dependence of adsorption onto FDKP microparticles with excess protein (retentate mass ratio by HPLC); assay type: physicochemical; conditions: for type of monolayer formed: 5 mg/mL FDKP, 2 mg/mL protein
Method: (An excess of protein, as referred to herein, is that amount over what is believed to be necessary to form a monolayer covering the accessible surface of the FDKP microparticle). After incubation, non-adsorbed protein was removed by filtration. The solids retained on the filter (retentate) were dissolved and the amounts of FDKP microparticles and protein retained on the filter were quantitated by HPLC. The protein/particle mass ratio was determined from this quantitation.
Insulin was adsorbed (loaded) onto FDKP microparticles in a pH-controlled process by mixing an aqueous suspension of FDKP microparticles with an aqueous solution of insulin. […] The solid particles with adsorbed insulin were recovered from the filter (retentate), dissolved and collected. The amounts of insulin and dissolved FDKP microparticles were quantitated by HPLC. The amount of adsorbed insulin was calculated as a fraction of the total mass of retentate.

[7] = Ultrasonic glacial acetic acid titration of FDKP particles + insulin; assay type: physicochemical; conditions: 10 mg/mL FDKP, 1 mg/mL insulin; reduced interaction below about pH 2.9
Method: This suspension was introduced into an ultrasonic spectrometer. While stirring gently, glacial acetic acid was gradually added in 5 μL aliquots to lower the pH. At each step in the titration ultrasonic data was collected.
The change in ultrasonic velocity was related (proportional) to the amount of surface area (hydration water) of the particles and/or macromolecules in the sample. […] This additional surface area was from free insulin in the suspension.

Row | Substance | adsorption as active agent concentration is increased [1] | Resuspended in Acidic solution, integrated HPLC peak area [3] [mAU * sec] | Resuspended in water, integrated HPLC peak area [3] [mAU * sec] | Redissolved after filtering away acidic solution, integrated HPLC peak area [3] [mAU * sec] | Redissolved after filtering away water, integrated HPLC peak area [3] [mAU * sec] | Active Agent Standard solution, integrated HPLC peak area [3] [mAU * sec] | effect of increasing ionic strength on adsorption [4] | further results
1 | GLP-1: glucagon-like peptide 1 | reached saturation |  |  |  |  |  |  | self association [2]: does not self associate
2 | Insulin Aspart: a fast-acting type of insulin |  | 893 | 0 | 29 | 982 | 1099 |  | 
3 | PTH: parathyroid hormone | reached saturation |  |  |  |  |  | reduced the extent of adsorption | 
4 | ghrelin: ghrelin, active agent adsorbed onto FDKP microparticles (GSSFLSPEHQRVQQRKESKKPPAKLQPR; ends and bridges not checked; UniProt Q9UBU3 24-51, looked up) |  |  |  |  |  |  | reduced the extent of adsorption | 
5 | insulin: protein active agent adsorbed onto FDKP microparticles |  | 980 | 4 | 49 | 936 | 1103 |  | pH at which substantially complete binding is achieved ([5]; insulin on FDKP particles): ≥ 4.2; insulin adsorbed from solution onto the particles ([5]; pH 3.6): approximately 75%; pH dependence of adsorption ([6]; 5 mg/mL FDKP particles at varying pH, excess active agent (FIGS. 4A-D)): increased as a function of pH; type of monolayer formed ([6]; pH 3.5 through pH 4.5): non-continuous monolayers; type of monolayer formed ([6]; pH 5.0): continuous monolayer; pH of association of protein with FDKP microparticles [7]: greater than 2.9
